Experiment [1] deals with T1, CD47 protein (construct not stated; SPR antigen, CD47 coated ELISA plates) (Homo sapiens (Human), UniProt Q08722 19-139, limits assumed).
T1 construct: also called the antigen
As to the kind of experiment: ELISA on CD47, OD450 against Log[M]; column headed KD beside the legend.

Experiment [2] concerns the target T2, human CD47 expressed on cells (CD47 expressing CHO cells, Jurkat, HL60, DLD1, Raji) (human, UniProt Q08722 19-292).
T2 construct: also called CHO-CD47; IAP
As to the kind of experiment: IC50 as grade, SIRPα blocking on Raji cells (second part of the table); legend +++: <1 nM.

Experiment [3] deals with T2, human CD47 expressed on cells (CD47 …). As to the kind of experiment: flow cytometry blocking assay on Raji cells, SIRPα is the blocked ligand, MFI. In general terms: A flow cytometer gives signals particle by particle.
Experiment [4] has the same target. Put plainly: flow cytometry on human red blood cells, donor 2, MFI.
Experiment [5] has the same target. As to the kind of experiment: flow cytometry on human red blood cells, donor 1, MFI.
Experiment [6] shares this target. Put plainly: flow cytometry on human platelets, donor 1, MFI.
The target is the same in experiment [7]. Put plainly: flow cytometry on human platelets, donor 2, MFI.
Experiment [8] deals with T1, CD47 protein (construct not stated; SPR …). Put plainly: SPR (Biacore T100), affinity (nM) as grade; legend +: >10 nM and <40 nM. Background: SPR reads the build-up and loss of mass on a sensor chip optically.
Experiment [9] addresses T2, human CD47 expressed on cells (CD47 …). Put plainly: EC50 (nM) as grade, binding on CHO-CD47 cells; legend +++: >0.05 nM and <1 nM.
Experiment [10] has the same target. Put plainly: flow cytometry on human red blood cells, donor 2, MFI; EC50 (nM) table beside the legend.
For experiment [11], the target named is T3, human CD47-Fc protein (Novoprotein, Cat#CG18) (human, UniProt Q08722 19-139).
T3 construct: Bought protein; also called CD47-hFc; hCD47-hFc fusion protein; not shown: human IgG Fc of the bought fusion protein
Put plainly: IC50 (nM) as grade, blocking of soluble CD47 binding to SIRPα-expressing CHO cells; legend ++: >1 nM and <10 nM.

The next experiment deals with T4, CHO/mCD47-GFP (mouse, UniProt Q61735).
T4 construct: on the cell surface; also called mouse CD47 expressed on CHO cells; CHO cell expressing mouse CD47
T4 sequence (receptor, looked up): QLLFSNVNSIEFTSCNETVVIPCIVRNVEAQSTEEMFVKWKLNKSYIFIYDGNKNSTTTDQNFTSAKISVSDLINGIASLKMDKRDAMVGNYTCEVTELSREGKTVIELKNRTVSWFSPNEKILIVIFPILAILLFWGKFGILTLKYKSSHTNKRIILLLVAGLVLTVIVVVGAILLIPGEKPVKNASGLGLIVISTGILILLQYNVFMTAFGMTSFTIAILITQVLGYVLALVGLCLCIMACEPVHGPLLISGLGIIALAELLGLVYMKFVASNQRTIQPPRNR
As to the kind of experiment: flow cytometry on CHO cells expressing mouse CD47-GFP, binding percentage.

Experiment [12] addresses T2, human CD47 expressed on cells (CD47 …). Put plainly: EC50 (nM) as grade, binding on Jurkat cells; legend +++: >0.05 nM and <1 nM.
Experiment [13] deals with T3, human CD47-Fc protein (Novoprotein, …). As to the kind of experiment: IC50 (nM) as grade, neutralizing ELISA, CD47-hFc on SIRPα coated plate; legend ++++: <8 nM. For orientation: In an ELISA, binding on a coated surface is turned into a signal by an enzyme label.
Experiment [14] has as its target T5, biotin labelled polyhistidine tagged CD47 protein (Novoprotein, Cat#321) (human, UniProt Q08722 19-139, biotin labelled (site not stated)).
T5 construct: Bought protein; also called biotinylated CD47; biotinylated human CD47 protein; not shown: polyhistidine tag
Put plainly: flow cytometry blocking assay: antibody mixed with biotinylated human CD47 protein; blocked ligand SIRPα on cells; binding percentage.

Experiment [15] addresses T2, human CD47 expressed on cells (CD47 …). As to the kind of experiment: flow cytometry on CD47 expressing CHO cells, MFI (FL-4).
Experiment [16] shares this target. Put plainly: flow cytometry blocking assay: 100 nM biotinylated SIRPa-Fc (blocked ligand) on DLD1 cells expressing CD47, MFI.
Experiment [17] has the same target. As to the kind of experiment: flow cytometry on DLD1 cells, IgG, MFI.
For experiment [18] the target is unchanged. Put plainly: flow cytometry blocking assay: 100 nM biotinylated SIRPa-Fc (blocked ligand) on DLD1 cells expressing CD47, frequency.
The target is the same in experiment [19]. As to the kind of experiment: IC50 (nM) MFI as grade, blocking biotinylated SIRPa-Fc binding to DLD1 cells; legend +++: <1 nM.
The target is the same in experiment [20]. Put plainly: flow cytometry on DLD1 cells, IgG, frequency.
Experiment [21] has the same target. As to the kind of experiment: IC50 (nM) Frequency as grade, blocking biotinylated SIRPa-Fc binding to DLD1 cells; legend +++: <1 nM.

Changes are numbered by the printed parent chain.

B1: H-ABU2a (antibody, V domains shown)
VH: QVQLVQSGAEVKKPGASVKVSCKASGYTFTDFYINWVRQAPGQRLEWMGWIYLGSGNTKYNEKFKGRVTITRDTSASTAYMELSSLRSEDTAVYYCARREERGFAYWGQGTLVTVSS
VL: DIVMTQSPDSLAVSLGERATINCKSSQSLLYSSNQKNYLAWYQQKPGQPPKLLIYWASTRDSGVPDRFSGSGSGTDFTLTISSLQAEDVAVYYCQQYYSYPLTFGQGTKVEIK
For B1, binding in experiment [1] was characterised by a dissociation constant (Kd) of 1.6 nM.

B2: H-ABU 8 (antibody, V domains shown)
VH: B1 VH with F32N, I51V
VL: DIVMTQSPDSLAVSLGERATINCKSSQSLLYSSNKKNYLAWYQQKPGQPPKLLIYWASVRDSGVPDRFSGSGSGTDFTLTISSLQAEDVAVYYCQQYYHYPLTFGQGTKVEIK
As to B2, the IC50 (in general, the concentration that gives 50% inhibition) in experiment [2] was under 1 nM. Besides, in experiment [3], the “IC50 (read off the curve)” value is about 0.2 nM.

B3: H-ABU2c (antibody, V domains shown)
VH: B1 VH with A24V, R72V
VL: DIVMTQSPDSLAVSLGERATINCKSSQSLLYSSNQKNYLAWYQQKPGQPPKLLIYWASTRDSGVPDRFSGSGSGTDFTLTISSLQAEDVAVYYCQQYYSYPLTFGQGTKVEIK
In the case of B3, the Kd (as a rule, the free concentration of one partner at which half of the binding sites on the other are occupied at equilibrium, for simple one-to-one binding) in experiment [1] came to 1.5 nM.

B4: H-ABU 11 (antibody, V domains shown)
VH: B1 VH
VL: DIVMTQSPDSLAVSLGERATINCKSSQSLLSSSQKNYLAWYQQKPGQPPKLLIYWASTRDSGVPDRFSGSGSGTDFTLTISSLQAEDVAVYYCQQFYSYPLTFGQGTKVEIK
B4: the EC50 (read off the curve) (usually the concentration giving half of the maximal effect) was about 1 nM in experiment [4], about 1 nM in experiment [5], about 1 nM in experiment [6] and about 0.9 nM in experiment [7]. The molecule also returned an IC50 in experiment [2] of under 1 nM. Also, in experiment [3], the “IC50 (read off the curve)” value was about 0.8 nM.

B5: ABU2 (antibody, V domains shown)
VH: QVQLQQPGAELVRPGASVKLSCKASGYTFTNYWMNWFKQRPEQGLEWIGRIDPYDSETLYNQKFKDKAILTVDKSSSTAYMQLSSLTSEDSAVYYCAGGGKGGFGYWGQGTLVTVSA
VL: DVLMTQTPLSLPVSLGDQASISCRSSQSIVYSNGNTYLEWYLQKPGQSPKLLIYKVSNRFSGVPDRFSGSGSGTDFTLKISRVEAEDLGVYYCFQGSHVPYTFGGGTKLEIK
notes: Murine hybridoma monoclonal antibody
Consider B5, for which the “Affinity by SPR” value in experiment [8] is 10 to 40 nM. Further, the EC50 – broadly, the concentration at which the effect is half-maximal – in [9] is 0.05 to 1 nM; in experiment [10] it was 0.25 nM; in experiment [12], 0.05 to 1 nM. Further, the IC50 in [11] is 1 to 10 nM; in experiment [13], under 8 nM. Moreover, the binding result in the experiment with CHO/mCD47-GFP is reported as “no binding (tested: about 0.4 ug/ml)”.

B6: C-ABU2 (antibody, V domains shown)
VH: B5 VH
VL: B5 VL
Take B6: in experiment [14], the “IC50 (read off the curve)” value is about 3 nM. Moreover, the “EC50 (read off the curve)” value in experiment [15] was about 1 nM.

B7: Positive 1 (commercial anti-CD47 blocking antibody, eBioscience Cat#14-0479) (antibody, V domains shown)
VH: EVQLVESGGDLVKPGGSLKLSCAASGFTFSGYGMSWVRQTPDKRLEWVATITSGGTYTYYPDSVKGRFTISRDNAKNTLYLQIDSLKSEDTAIYFCARSLAGNAMDYWGQGTSVTVSS
VL: DIVMTQSPATLSVTPGDRVSLSCRASQTISDYLHWYQQKSHESPRLLIKFASQSISGIPSRFSGSGSGSDFTLSINSVEPEDVGVYYCQNGHGFPRTFGGGTKLEIK
notes: also called Pos; B6H12
With B7, the “Affinity by SPR” value in experiment [8] was in the range of 10 to 40 nM. Further, the EC50 in [9] and in experiment [12] was 0.05 to 1 nM throughout. The IC50 in experiment [11] was 1 to 10 nM; in experiment [13], under 8 nM. In addition, the binding result with CHO/mCD47-GFP is reported as “no binding (tested: about 0.4 ug/ml)”.

B8: ABU14 (IgG, chimeric version of the Fab) (antibody, V domains shown)
VH: EVQLQQSGPELVKPGASVKISCKASGYSFTNYHIHWVKQRPGQGLEWIGWIYPGSGNTKYNEKFKGMAILTADTSSSTAYMQLSSLTSEDSAVYYCARYDYDLYLHSWGQGTTVTVSS
VL: DIQINQSPSSLSASLGDTITITCHASQNINVWLSWYQQKPGNIPKLLIYKASNLHTGVPSRFSGSGSGTGFTLTISSLQPEDIATYYCQQGQSYPLTFGAGTKLEIK
In the case of B8, the “IC50 (read off the curve)” value is about 0.3 nM in [16] and about 0.8 nM in experiment [18]. Further, the “EC50 (read off the curve)” value is about 0.4 nM in experiment [17] and about 0.05 nM in [20]. The IC50 in experiment [19] and in experiment [21] was under 1 nM in each case.

B9: ABU9 (IgG, chimeric version of the Fab) (antibody, V domains shown)
VH: EVQLQQSGPELVKPGASVKLSCKASGFTFTNYYIHWVKQRPGQGPEWIGWIYLGSGNTKYNEKFKGKATLTADTSSSTAYLQLSTLISEDSAVYYCARYDYDLYLDSWGQGTTVTVSS
VL: B8 VL with Q3K, I4M, I106L
Consider B9, for which the “IC50 (read off the curve)” value in [16] was about 0.3 nM; in experiment [18] it was about 0.8 nM. Moreover, the “EC50 (read off the curve)” value in experiment [17] is about 0.4 nM; in experiment [20] it was about 0.05 nM. Also, the IC50 in [19] and in experiment [21] was under 1 nM each time.

For the origin of these results see patent US20200247886A1 (ZLIP, published 2020).
